Results as given in the nanobody polyreactivity screen of Harvey et al. (2022).

Assay: yeast display, Sf9 membrane polyspecificity reagent, FACS + sequencing; frameworks hold sequencing errors
In short: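 After 36–48 hours of galactose induction, yeast (Saccharomyces cerevisiae BJ5465) displaying a synthetic nanobody library were stained at 4 °C for 1 hour with 10% biotinylated, detergent-solubilized Sf9 membrane reagent. Streptavidin microbeads enriched the stained cells before FACS sorting into low and high (top ~1%) gates on anti-HA and streptavidin fluorescence. Each clone's polyreactivity label reflects its gate of origin.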

Sequence	polyreactivity (PSR sort gate)
QVQLVESGGGLVQAGGSLRLSCAASGFIFRDYAMGWYRQAPGKERELVATISSS	low polyreactivity
QVQLVESGGGLVQAGGSLRLSCAASGRIFRPNAMGWYRQAPGKERELVAAMTSGGSTNYADSVKGRFTISRDNAKNTVYLQMNSLKPEDTAVYYCAKGYKYGKNIYYYWGQGTQVTVSS	high polyreactivity
QVQLVESGGGLVQAGGSLRLSCASSGSIININVMGWYRQAPGKERELVAAINSGTSTYYADSVKGRFTFSRDNAKITVYLKMNSLKPEDTAVYYCAARNLFTGRRLFYFWGQGTQVTVSS	low polyreactivity
QVQLVESGGGLVQAGGSLRLSCAASGSIFRKYSMGWYRQAPGKERELVAGITGRGGRTYYADSVKGRFTISRDNAKNTVYLQMNSLKPDDTAVYYCAATVSPSYDYWGQGTQVTVSS	high polyreactivity
QVQLVESGVGLVQGGGSLRLTCAASGYTFPRYTKGWYRQPPGKERELVASINWSGGSTYYADSVKGRFTISRDNAKNNVYLQMNCLKPDDTAVYFCNKAYVSRYDYWGQGSQVTVSS	high polyreactivity
QVQLVESGGGLVQAGGSLRLSGAASGGTFSTNAMGWYRQAPGKERELVAAISLSGGRTYADSEKGRFTISRDNAKNTVYLKMNSVKPEDTAVYYCNADSAGITRARSELDYWGQGTQVTVSS	low polyreactivity
QVQLVESGRGLVQAGGSLRLSCAASGFTFGVNAMGWYRQAPGKERELVAAITRSGGTTYYADSVKGRFTISRDNAKNTVYLQMNSLKPEDTAVYYCNRRARSYADDYWGQGTQVTVSS	high polyreactivity
QVQLVESGGGLVQAGGSLRLSCAASGFTFYRYAMGWYRQAPGKERELVAAISQRGGRTYYADSVKGRFTISRDNAKTTVYLQMNSLKPEDTAVYYCNARYSGYGLYDYWGQGTQVTVSS	high polyreactivity
QVHLVESGGGLVQAGGSLRLSCAASGSTFGRYTMGWYRQAPGKERELVAAITSGGGSTYYADSVKGRFTISRDNAKNTVYLQMNSLKPEDTAVYYCAARSLVQDHAYGYNYWGQGTQVTVSS	low polyreactivity
QVQLVESGGRKVQAGGSLRLSCAASGSTIWPYAMGCYRQAPAKERELVAAISNGGGTKYADSVKGRFTISRDNAKNTVYLQMNSLKPEHTAVYYCAKTLWTGRAWYDYWGQGTQVTVSS	high polyreactivity
QVQLVESGGGLVQAGGSLRLSCAASGFTFKWYAMGWYRQAPGKERELVATITIGGRTNYADSVKGRFTISRDNAKNTVYLQMNSLKPEDTAVYYCAAESGKIVDFVWVLAYPRLDYWGQGTQVTVSS	low polyreactivity
QVQLVESGGGLVQAGGSLPLTCAASGRIFGVYAMGWYRQAPGKERELVASISWSGSSTYYADSVKGRFTISRDNEKNTVYLQMNSLKPEDTAVYYCAADANHYRYGGGYWGQGTQVTVSS	low polyreactivity
QVQLVESGGGLVQAGGSLRLSCAASGSIFYTNAMGWYRQAPGKERELVAAIRKSGGSTYYADSVKGRFTISRDNAKNTVYLQMNSLKPEDTAVYYCNKLYRVPQDLHDYWGQGTQVTVSS	high polyreactivity
QVQLVESGGGFVQAGGSLRLSCAASGNTFAGNAMGGYRQAPGKERELDAAISRSGVTTRYADSVKGRFTISRDNAKNTVYFQMKSLKPEDTAVSYCNADPRLRETRDYWGQVTQVTVSS	high polyreactivity
QVQLVESGGGLVQAGGSLRLSCAASGSTFVYNAMGWYRQAPGKERELVAAISSGGSTYYADSVKGRFTISRDNAKNTVYLQMNSLKPEDTAVYYCNARGSWRRDKYGTYYRYDYWGQGTQVTVSS	high polyreactivity
QVQLVESGGGLVQAGGSLRLSCAASGLTFGFYAMGWYRQAPGKERELVAGISNGGSTNYADSVKGRFTISRDNAKNTVYLQMNSLKPEDTAVYYCAARLYARRLYDYWGQGTQVTVSS	low polyreactivity

Sequence	polyreactivity (PSR sort gate)
QVQLVESGGGLVQAGGSLRLSCAASGRIFRSYALGWYRQAPGKERELAAAISYGGGSTYYADSVKGRFTISRDNAKNTVYLQMNSLKPEDTAVYYCAARGYSRPMDYWGQGTQVTVSS	high polyreactivity
QVQHVESGRGLVQAGGSLRLSCAASGRIFNPYAMGRYRQAPGKERELVAAISRGGRTYYADSVKGRFTISRDNAKNTVYLQMNSLKPEDTAVYYCNAGRGLREDDYWGQGTQVTVSS	low polyreactivity
QDQLVESGGGLVQAGGSLRLSCAASGSTRIYAMGWYRRAPRKEMELVAAISWTGGRTYYADSVKGRFTISRDNAKIIVYLQMNSLKPEYTAVYYCAAQYFTFYWKLDYWGQGTQVTVSS	high polyreactivity
QVQLVESGGGLDQAGGSLRLSCAASGLIFYYYAMGWYRQAPGKERELVAAISSNGGSTYYADSVKGRFTISRDNAKNTVYLQMNSLKPEDTAGYYCAAVGRVDGYRYDYWGQGTQVTVSS	high polyreactivity
QVQLVESGGGLVQAGGSLRLSCAGSGSTFQNNAMGWYSQAPGKERELVAAISRSSGRRYYADSVKGRFTISRDHAKNTVYCQMNSLKPEDTAGYYCAASLGGYITRYNYWGQGTQVTVSS	high polyreactivity
QVQLVESGGGLVQAGGSLRLSCAASGITFWYYAMGWYRQAPGKERELVARIRRSGGSTYYADSVKGRFTISRDNAKNTVYLQMNSLKPEDTAVYYCAAEPRWTAVYQGAERFYYWGQGTQVTVSS	high polyreactivity
QVQLVESGGGLVQAGGSLRLSCAASGRTSFYYGMGWYRQAPGKERELVAGINYGGGSTYYADSVKGRFTISRDNAKNTVYLQMNSLKPEDTAVYYCNAGDGPDEEYDYWGQGTQVTVSS	low polyreactivity
QDQLVESGGRLVQAGGSLRLSCAASGRIFSSYALGWYRQAPGKERELVAAIRSSGDRTYYADSVKGRFTISRDNAKITVYLQMNILKPEETAVYFCASRTYLYFGRYDYWGQGTQVTVSS	high polyreactivity
QVQLVESGGGLFQAGGRLRLSCAASGSIFPPYAMGWYRQAPGKERELVAAINWSGGRTYYADSVKGRFTISRDHPKNTLYLHMNSLKPEDTEDYYGAADLRRYSGEYYYWGQRTQVTVSS	high polyreactivity
QVQLVESGGGLVQAGGSLRLSCAASGSIFSTYAMGRYRQAPGKERELVAAITFGGGTTYYADSVKGRFTISRDNAKNTVYLQMNSLKPEDTAVYYCAARYYYGSWYFYYSDKYDYWGQGTKVTVSS	low polyreactivity
QVQLVESGGGLVQAGGSLRLSCAASGSTFNYNAMGWYRQAPGKERELVAAINRSGGRTYYADSVKGRFTISRDNAKNTVYLKMNSLKPEDTAVYYCAKRYYKSLNRDEFDSWGQGTQVTVSS	high polyreactivity
QVQLVESGGGLVQAGGSLRLSCAASGSIFSVYAMGWYRQAPGKEREFVASISGGSGRTYYADSVKGRFTISRDNAKNTVYLQMNSLKPEDTAVYYCDAVLRYTSLSHDYHYKYDYWGQGTQVTVSS	low polyreactivity
QVQLVESGGGLVQAGGSLRLSCAASGITFYYYTMGWYRTAPGKEREFVAVISGSGGSTYYADSVKGRFTISRDNAKNTVYLQMNSLKPEDTAVYYCAARNSFLAYFVGLIQEDDYWGQGTQVTVSS	high polyreactivity
QVQLLESGGGLVQAGGSLRLSCAASGITFPYYAMGWYRQAPGKERELVAAISSSGGSTYYADSVKGRFTISRDIAKNTVYLQMNSLKPEDTAVYYCAAQRYINYDYWGQGTQVTVSS	high polyreactivity
QVQLVESGGGLVQAGGSLRLSCAASGLIFGAYTMGWYRQAPGKERELVASITTSGDSTYYADSVKGRFTISRDNAKNTVYLQMNSLKPEDTAVYYCAAESTVGTDLGGDSWGQGTQVTVSS	high polyreactivity
QVQLVESGGGLDQAGGSLRLSCAPSGSIVRYAMGWYRPAPGKERELVAAISSSGGSTYYADSVKGRFTISRDNAKNTFYLQMNRLKPADTAVYYCAKRIVQASVAAYYYWGQGPQVTVSS	high polyreactivity
